Results as given in patent US20220003782A1 (METAFORA BIOSYSTEMS, published 2022).

What was measured:
XPR1/SLC53A1 [1] = assay: flow cytometry, HEK293T cells with siSMVT A (endogenous receptor), saturating ligand, Alexa488 anti-mouse IgG1
XPR1/SLC53A1 [2] = assay: flow cytometry, HEK293T cells with control siRNA siLUC (endogenous receptor), saturating ligand, Alexa488 anti-mouse IgG1
[3] = target: GLUT1/SLC2A1 (glucose transporter type 1) (UniProt P11166); assay: flow cytometry, HEK293T cells with siSMVT A (endogenous receptor), saturating ligand, Alexa488 anti-mouse IgG1
[4] = target: GLUT1/SLC2A1 (glucose transporter type 1) (UniProt P11166); assay: flow cytometry, HEK293T cells with control siRNA siLUC (endogenous receptor), saturating ligand, Alexa488 anti-mouse IgG1
CAT1/SLC7A1 [5] = target: CAT1/SLC7A1 (UniProt P30825); assay: flow cytometry, HEK293T cells with siSMVT A (endogenous receptor), saturating ligand, Alexa488 anti-mouse IgG1
CAT1/SLC7A1 [6] = target: CAT1/SLC7A1 (UniProt P30825); assay: flow cytometry, HEK293T cells with control siRNA siLUC (endogenous receptor), saturating ligand, Alexa488 anti-mouse IgG1
[7] = target: T1, sodium-dependent multivitamin transporter / solute carrier family 5 member 6 (SMVT/SLC5A6) (human, UniProt Q9Y289 1-635); assay: flow cytometry on HEK293T cells, siSMVT A against siLUC control
T1 construct: also called SLC5A6/SMVT
T1 sequence: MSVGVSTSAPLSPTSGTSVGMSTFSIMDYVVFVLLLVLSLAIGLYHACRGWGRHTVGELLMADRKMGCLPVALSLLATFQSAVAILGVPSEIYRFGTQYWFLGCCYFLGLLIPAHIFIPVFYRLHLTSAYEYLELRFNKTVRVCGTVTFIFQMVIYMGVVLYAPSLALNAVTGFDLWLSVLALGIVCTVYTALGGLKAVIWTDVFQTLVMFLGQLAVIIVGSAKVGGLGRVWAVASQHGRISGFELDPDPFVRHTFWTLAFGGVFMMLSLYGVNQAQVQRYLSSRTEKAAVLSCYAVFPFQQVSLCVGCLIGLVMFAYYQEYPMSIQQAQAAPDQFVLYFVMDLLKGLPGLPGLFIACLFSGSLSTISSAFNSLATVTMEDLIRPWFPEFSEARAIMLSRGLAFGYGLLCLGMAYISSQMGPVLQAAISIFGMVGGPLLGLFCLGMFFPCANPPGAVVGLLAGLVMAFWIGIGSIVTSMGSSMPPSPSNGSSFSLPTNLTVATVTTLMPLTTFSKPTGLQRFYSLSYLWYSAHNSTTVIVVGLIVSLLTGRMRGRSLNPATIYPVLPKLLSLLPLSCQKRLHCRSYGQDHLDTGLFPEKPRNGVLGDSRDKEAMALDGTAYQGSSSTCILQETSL

GLUT1/SLC2A1 (glucose transporter type 1), sequence (P11166 whole entry): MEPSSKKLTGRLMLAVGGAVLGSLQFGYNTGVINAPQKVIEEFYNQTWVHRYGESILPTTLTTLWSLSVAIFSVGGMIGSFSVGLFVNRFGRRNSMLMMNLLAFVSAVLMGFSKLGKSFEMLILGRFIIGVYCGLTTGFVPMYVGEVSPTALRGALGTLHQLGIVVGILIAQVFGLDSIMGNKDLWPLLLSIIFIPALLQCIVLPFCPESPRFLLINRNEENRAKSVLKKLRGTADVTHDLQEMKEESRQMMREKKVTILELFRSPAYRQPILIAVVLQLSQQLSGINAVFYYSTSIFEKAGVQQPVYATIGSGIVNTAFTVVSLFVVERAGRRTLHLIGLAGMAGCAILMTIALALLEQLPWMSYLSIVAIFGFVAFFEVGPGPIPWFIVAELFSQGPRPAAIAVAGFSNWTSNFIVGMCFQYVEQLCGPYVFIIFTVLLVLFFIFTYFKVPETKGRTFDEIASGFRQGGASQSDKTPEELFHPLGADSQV
XPR1/SLC53A1, sequence (Q9UH99 whole entry): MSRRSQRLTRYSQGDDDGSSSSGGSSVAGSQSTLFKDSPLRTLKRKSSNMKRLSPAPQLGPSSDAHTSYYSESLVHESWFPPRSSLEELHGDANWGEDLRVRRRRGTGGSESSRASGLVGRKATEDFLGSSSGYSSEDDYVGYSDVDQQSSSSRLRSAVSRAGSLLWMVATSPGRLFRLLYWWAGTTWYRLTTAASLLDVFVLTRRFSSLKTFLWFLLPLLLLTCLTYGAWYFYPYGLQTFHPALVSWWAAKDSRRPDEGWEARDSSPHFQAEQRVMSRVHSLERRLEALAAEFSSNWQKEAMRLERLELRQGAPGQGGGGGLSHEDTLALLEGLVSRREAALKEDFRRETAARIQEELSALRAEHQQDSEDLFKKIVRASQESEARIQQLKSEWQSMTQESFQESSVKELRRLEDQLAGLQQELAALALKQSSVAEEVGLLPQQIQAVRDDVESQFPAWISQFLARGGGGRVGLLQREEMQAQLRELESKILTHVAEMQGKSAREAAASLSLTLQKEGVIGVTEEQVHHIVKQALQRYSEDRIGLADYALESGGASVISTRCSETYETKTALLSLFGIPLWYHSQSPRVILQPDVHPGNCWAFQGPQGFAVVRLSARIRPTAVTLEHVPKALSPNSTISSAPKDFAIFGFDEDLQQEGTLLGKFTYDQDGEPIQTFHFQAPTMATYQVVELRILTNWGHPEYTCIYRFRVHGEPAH
CAT1/SLC7A1, sequence (P30825 whole entry): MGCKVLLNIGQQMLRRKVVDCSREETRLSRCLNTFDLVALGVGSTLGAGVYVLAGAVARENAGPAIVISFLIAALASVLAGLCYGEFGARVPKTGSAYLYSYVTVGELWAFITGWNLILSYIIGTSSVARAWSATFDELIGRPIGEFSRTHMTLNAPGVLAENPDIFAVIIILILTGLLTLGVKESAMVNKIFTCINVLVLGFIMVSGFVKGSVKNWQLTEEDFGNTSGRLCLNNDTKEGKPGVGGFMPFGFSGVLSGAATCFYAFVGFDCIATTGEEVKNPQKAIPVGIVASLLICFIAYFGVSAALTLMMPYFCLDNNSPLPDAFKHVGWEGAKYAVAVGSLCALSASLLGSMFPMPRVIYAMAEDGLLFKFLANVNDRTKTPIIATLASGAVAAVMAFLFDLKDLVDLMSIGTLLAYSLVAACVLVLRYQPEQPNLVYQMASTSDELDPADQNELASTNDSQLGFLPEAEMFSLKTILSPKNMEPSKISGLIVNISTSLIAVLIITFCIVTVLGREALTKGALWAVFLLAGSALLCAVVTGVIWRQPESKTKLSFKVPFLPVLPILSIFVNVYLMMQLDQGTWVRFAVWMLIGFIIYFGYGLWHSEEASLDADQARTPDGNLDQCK

With “RBD from a xenotropic murine retrovirus (XRBD), fusion protein with mFC (Fc fusion)” as the molecule, how does the relative specific binding (delta of the geometric mean of the fluorescence intensity) (XPR1/SLC53A1 [1]) read?
Its relative specific binding (delta of the geometric mean of the fluorescence intensity) is 14.6.

And the relative specific binding (delta of the geometric mean of the fluorescence intensity) (XPR1/SLC53A1 [2])?
Its relative specific binding (delta of the geometric mean of the fluorescence intensity) is 12.6.

With “human T-cell leukemia virus type 2 (HTLV2)-RBD, fusion protein with mFC (Fc fusion)” as the molecule, how does the relative specific binding (delta of the geometric mean of the fluorescence intensity) [3] read?
Its relative specific binding (delta of the geometric mean of the fluorescence intensity) is 21.3.

What about the relative specific binding (delta of the geometric mean of the fluorescence intensity) [4] of the same molecule?
The relative specific binding (delta of the geometric mean of the fluorescence intensity) was 18.3.

What does the source list for “RBD derived from the bovine leukemia virus (BLV), fusion protein with mFC (Fc fusion)”?
relative specific binding (delta of the geometric mean of the fluorescence intensity) (CAT1/SLC7A1 [5]): 110; relative specific binding (delta of the geometric mean of the fluorescence intensity) (CAT1/SLC7A1 [6]): 110

B1: PERV-B RBD ligand fused to a mouse Fc fragment (SEQ ID NO: 13) (Fc fusion)
chain: KRLIDSSNPHRPLSLTWLIIDPDTGVTVNSTRGVAPRGTWWPELHFCLRLINPAVKSTPPNLVRSYGFYCCPGTEKEKYCGGSEESFCRRWSCVTSNDGDWKWPISLQDRVKFSFVNSGPGKYKVMKLYKDKSCSPSDLDYLKISFTEKGKQENIQKWINGMSWGIVFYKYGGGAGSTLTIRLRIEAGTEPPVAVGSVDVPRDCGCKPCICTVPEVSSVFIFPPKPKDVLTITLTPKVTCVVVDISKDDPEVQFSWFVDDVEVHTAQTQPREEQFNSTFRSVSELPIMHQDWLNGKEFKCRVNSAAFPAPIEKTISKTKGRPKAPQVYTIPPPKEQMAKDKVSLTCMITDFFPEDITVEWQWNGQPAENYKNTQPIMDTDGSYFVYSKLNVQKSNWEAGNTFTCSVLHEGLHNHHTEKSLSHSPGK
For B1, which “fold drop of specific binding with anti-SMVT siRNA against siLUC” value [7] is on record?
The value was > 2 fold.
